Results: patent US20200376136A1 (Regeneron, published 2020)

T1: human six-transmembrane epithelial antigen of prostate 2 (STEAP2) (human, UniProt Q8NFT2 1-490)
T1 construct: also called hSTEAP2
T1 sequence: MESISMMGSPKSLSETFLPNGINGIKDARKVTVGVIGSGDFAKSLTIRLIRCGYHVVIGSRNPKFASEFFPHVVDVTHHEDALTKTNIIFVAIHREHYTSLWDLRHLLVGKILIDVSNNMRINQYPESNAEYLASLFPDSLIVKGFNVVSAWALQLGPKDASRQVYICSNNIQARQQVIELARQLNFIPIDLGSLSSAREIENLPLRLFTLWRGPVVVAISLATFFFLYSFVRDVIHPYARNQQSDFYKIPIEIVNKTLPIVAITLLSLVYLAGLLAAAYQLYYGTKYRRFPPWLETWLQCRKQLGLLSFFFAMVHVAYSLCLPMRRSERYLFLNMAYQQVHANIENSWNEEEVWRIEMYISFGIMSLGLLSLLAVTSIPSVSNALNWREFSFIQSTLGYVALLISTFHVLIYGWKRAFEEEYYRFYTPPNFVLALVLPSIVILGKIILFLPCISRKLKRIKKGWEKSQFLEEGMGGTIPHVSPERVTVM


Legend:
[1] = biological target: T1, human six-transmembrane epithelial …; assay: FACS on HEK293 cells (low STEAP2), MFI fold above unstained, average at 100-300 nM antibody
Method: (§1) Briefly, 1×10⁵ cells were incubated with 10 μg/ml of anti STEAP2 antibodies, or isotype control antibodies for 30 min on ice in antibody dilution buffer. Following one wash with antibody dilution buffer, cells were incubated with 10 μg/ml of PE conjugated anti-human or antimouse Fc secondary antibodies for 30 min on ice. Following one additional wash, samples were incubated with Cytofix (1% formaldehyde) for 20 minutes. After one final wash, samples were filtered through a Pall 96 well filtration block, run on a Hypercyt® cytometer and analyzed in ForeCyt™ (IntelliCyt, Albuquerque, N. Mex.). Mean fluorescence intensities (MFI) were expressed as fold change above unstained levels (background). The average fold above background at antibody concentrations of 100-300 nM were determined.

[2] = biological target: T1, human six-transmembrane epithelial …; assay: FACS titration on C4-2 cells (endogenous STEAP2), 4-parameter fit
Method: as §1

[3] = biological target: T1, human six-transmembrane epithelial …; assay: FACS on C4-2 cells (endogenous STEAP2), MFI fold above unstained, average at 100-300 nM antibody
Method: as §1

| Binder | Avg F.A.B (fold above background) [1] [fold above background] | EC50 [2] [nM] | Avg F.A.B (fold above background) [3] [fold above background] |
| --- | --- | --- | --- |
| H1H7814N (antibody, human IgG1, V domains shown) VH: QVQLVESGGGVVQPGRSLRLSCVASGFTISSYGMNWVRQAPGKGLEWVAVISYDGGNKYSVDSVKGRFTISRDNSKNTLYLQMNSLRAEDSAVYYCARGRYFDLWGRGTLVTVSS VL: DIQMTQSPSTLSASVGDRVTITCRASQSISSWLAWYQQKPGRAPNLLISKASSLKSGVPSRFSGSGSGTEFTLTVSSLQPDDFATYYCQQYYSYSYTFGQGTKLEIK | 2 | 4 | 96 |
| H1H7810N (antibody, human IgG1, V domains shown) VH: QVQLVESGGGVVQPGRSLRLSCAVSGFTSSTYGMNWVRQAPGKGLEWVAVISYDGSNKYYADSVKGRFTISRDNSKNTLYLQMNSLRPEDTAVYYCARGRYFDLWGRGTLVTVSS VL: DIQMTQSPSTLSASVGDRVTITCRASQIISSWLAWYQQKPGKAPKLLIYKASSLASGVPSRFSGSGSGTEFTLTISSLQPDDFATYYCQQYKSYSYTFGQGTKLEIK | 3 |  | 26 |
| H1H11895P2 (antibody, human IgG1, V domains shown) VH: QVQLQESGPGLVKPSETLSLTCTVSGGSISIYYWTWIRQPPGKGLEWIGNIFYSGSTNYNPSLKSRVTISVDTSKNQFSLKLSSVTAADTAVYYCARERLGRYDAFDNWGQGTMVTVSS VL: not shown | 4 | 16 | 6 |
| H1H11894P2 (antibody, human IgG1, V domains shown) VH: QVQLVQSGAEVKKPGSSVKVSCRASGGTFSRFAIGWVRQAPGQGLEWMGGIIPIFGTASYAQKFQGRVTITTDESTSTAYMELRSLRSEDTAVYYCTREGITGRGYYYYGMDVWGQGTTVTVSS VL: not shown | 4 |  | 7 |
| H1H11878P (antibody, human IgG1, V domains shown) VH: not shown VL: AIQMTQSPSSLSAYVGDRVIITCRASQGIRNDLGWYQQKPGKAPKLLIYAASSLQSGVPSRFSGSRSGTVFTLTISSLQPEDFATYYCLQDYNYPWTFGQGTKVEIK | 5 | > 50 | 27 |
| H1H11892P2 (antibody, human IgG1, V domains shown) VH: EVQLVESGGGLVQPGGSLRLSCATSGFTFSNYDFHWVRQIRGQGLEWVSTIDTAGDTYFSGSVKGRFTISRDTAKTSLYLQMNSLRAGDTAVYYCARAPRYDSTGNYYNYYSYFGLDVWGQGTTVTVSS VL: not shown | 3 |  | 4 |
| H1H7809N (antibody, human IgG1, V domains shown) VH: QVQLVESGGGVVQPGRSLGLSCAASGFTFSSYGMHWVRQAPGKGLEWVAVIWYDGSNKYYVDSVKGRFTISRDNSKNTLYLQMNSLRAEDTAVYYCAREGLRFLENYYYYYGMDVWGQGTTVTVSS VL: EIVLTQSPGTLSLSPGERATLSCRASQSISSTYLAWYQQRPGQAPRLLIYGASSRATGIPDRFSGSGSGTDFTLTISRLEPEDFAVYYCQQYGTSPYTFGQGTKLEIK | 31 | > 50 | 89 |
| H1H11163N (antibody, human IgG1, V domains shown) VH: QVQLQQSGPGLVKPSQALSLTCAISGDSVSSNSAAWNWIRQSPSRGLEWLGRTYYRSKWYNDYAVSVKSRITINPDTSKNHFSLHLNSMTPEDTAVYYCARARIVVVPGPEVYYYYYYDMDVWGQGTTVTVSS VL: not shown | 6 | 3 | 90 |
| H1H11880P (antibody, human IgG1, V domains shown) VH: EVQLVESGGGLVQPGGSLRLSCAASGFTFSTYAMHWVRQAPGKGLQHVSTISTNGVNTYYADSVKGRFTISRDNSKSTLYLQMGSLRAEDMAVYYCARDKDFWSGYFDYWGQGTLVTVSS VL: EIVMTQSPGTLSVSPGERATLSCRASQSVSSNLAWYHQKPGQAPRLLIYGASTRATGFPARFSGSGSGTEFTLTISSLQSEDFAAYYCQQYNNWPITFGQGTRLEIK | 7 | 5 | 6 |

Now from value to binder:

| Avg F.A.B (fold above background) [1] [fold above background] | EC50 [2] [nM] | Avg F.A.B (fold above background) [3] [fold above background] | Binder |
| --- | --- | --- | --- |
| 5 | > 50 | 65 | H1H7811N (antibody, human IgG1, V domains shown) VH: QVQLVESGGGVVQPGRSLRLSCAVSGFTSSTYGMNWVRQAPGKGLEWVAVISFDGSNKYYADSVKGRFTISRDNSKNTLYLQMSSLRPEDTAVYYCARGRYFDLWGRGTLVTVSS VL: DTQMTQSPSTLSASVGDRVTITCRASQIISSWLAWYQQKPGKAPKLLIYKASSLASGVPSRFSGSGSGTEFTLTISSLQPDDFATYYCQQYKSYSYTFGQGTNLEIK |
| 3 | 21 | 9 | H1H11893P2 (antibody, human IgG1, V domains shown) VH: QVQLVQSGAEVKKPGASVKVSCKVSGYTLTELSMHWVRQAPGKGLEWMGSFDPEDDETIYAQKFQGRVTMTEDTSTDTAYMDLSSLRSEDTAVYYCSIEEVRWRGSDYYYVMDVWGQGTTVTVSS VL: not shown |
| 3 |  | 41 | H1H11243N (antibody, human IgG1, V domains shown) VH: QVQLQQSGPGLVKPSQTLSLTCAISGDSVSSNSAAWNWIRQSPSRGLEWLGRTYYRSKWYNDYAVSVKSRITINPDTSKNQFSLHLNSVTPEDTAVYYCARAGIVVVPGPDIYYYYYYGMDVWGQGTTVTVSS VL: not shown |
| 9 | 3 | 6 | H1H11888P2 (antibody, human IgG1, V domains shown) VH: QVQLQESGPGLVKPSQTLSLTCTVSGYSINSGGHFWSWIRQHPGKGLEWIGDIYYSGNTYSIPSLKRRISMSVDTSKNHFSLKLISVTAADTAIYYCARNSGGYLDAFDIWGQGTMVTVSS VL: not shown |
| 4 | 9 | 119 | H1H7972P (antibody, human IgG1, V domains shown) VH: QVQLQQSGPGLVKPSQTLSLTCAISGDSVSSNSAAWNWIRQSPSRGLEWLGRTYYRSKWYNDYVVSVKSRIIFNPDTSKNQFSLQLNSVTPEDTAVYYCARVRQDYRSGPFDYWGQGTLVTVSS VL: EIVMTQSPVTLSVSPGERATLSCWASQSVSSSLAWYQQKPGQAPRLLIYGASTRATGIPARFSGSGSGTGFTLTISSLQSEDFAVYYCQQYNNWPFTFGPGTKVDIK |
| 10 | 1 | 104 | H1H11162N (antibody, human IgG1, V domains shown) VH: QVQLQQSGPGLVKPSQTLSLTCAISGDSVSSNRAAWNWIRQSPSRGLQWLGRTYYRSKWYNDYAVSLRSRITINPVTSKNQVALHMNSVTPEDTAVYYCARAGIVVVPGPETFYYYDHGLDVWGQGTTVTVSS VL: DIQMTQSPSSLSASVGDRVTITCRASQSIRSYLNWYQQKPGKAPELLIHAASSLQSGVPSRFSGSGSGTDFTLTISSLQPEDFASYYCQQSYSAPPITFGQGTRLEIK |
| 10 | 2 | 117 | H1H11164N (antibody, human IgG1, V domains shown) VH: QVQLQQSGPGLVKPSQTLSLTCVISGDSVSTNSAAWNWIRQSPSRGLEWLGRTYYRSKWYNDYAVSVRSRITINPVTSKNQVALHLNSVTPEDTAVYYCARAGIVVVPGPETYYYYYHGLDVWGQGTTVTVSS VL: DIQMTQSPSSLSASVGDRVTITCRASQNIRSYLNWYQQKPGKAPKLLIHVASSLQSGVPSRFSGSGSGTDFTLTISSLQPEDFATYYCQQSYSTPPITFGHGTRLEIK |
